Source: the supplement of paper PMC9170038

Tests used:
MS2 coat protein = test: apparent KD of MS2 coat protein; higher = weaker reporter binding; conditions: Eterna round: R107
Method: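 RNA-MaP round R107: designed RNA switches with theophylline, tryptophan, arginine or FMN aptamers are transcribed on-chip within common flanks. They are titrated with SNAP-549-labelled MS2 coat protein in RNA-MaP buffer (100 mM Tris pH 7.5, 80 mM KCl, 4 mM MgCl2), without ligand or with the indicated ligand. Median apparent KD per design.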

[1] = tested on: K4 kissing-loop RNA reporter; test: apparent KD of K4 kissing-loop reporter; higher = weaker reporter binding; conditions: Eterna round: R107;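 note: bound reporter read as fluorescence of individual clusters on recovered sequencing chips by microscopy, with normalized cluster intensities fitted with a binding model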
Method: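 RNA-MaP round R107: designed RNA switches with theophylline, tryptophan, arginine or FMN aptamers are transcribed on-chip within common flanks. They are titrated with a labelled K4 kissing-loop RNA reporter in RNA-MaP buffer (100 mM Tris pH 7.5, 80 mM KCl, 4 mM MgCl2), without ligand or with the indicated ligand. Median apparent KD per design.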

[2] = input ligand: theophylline 20 uM
[3] = input ligand: theophylline 2 mM
[4] = input ligand: tryptophan 2.4 mM

Sequence	apparent KD of MS2 coat protein (MS2 coat protein; input ligand: arginine 13.2 mM) [nM]	apparent KD of MS2 coat protein (MS2 coat protein; input ligand: none) [nM]	apparent KD of MS2 coat protein (MS2 coat protein; [2]) [nM]	apparent KD of MS2 coat protein (MS2 coat protein; [3]) [nM]	apparent KD of MS2 coat protein (MS2 coat protein; [4]) [nM]	apparent KD of K4 kissing-loop reporter ([1]; input ligand: FMN 200 uM) [nM]	apparent KD of K4 kissing-loop reporter ([1]; input ligand: arginine 13.2 mM) [nM]	apparent KD of K4 kissing-loop reporter ([1]; input ligand: none) [nM]	apparent KD of K4 kissing-loop reporter [1, 2] [nM]	apparent KD of K4 kissing-loop reporter [1, 4] [nM]
AAAAUAAAGGCGGCCGCCACUAGAGUUAGGCAUAUGUACUGGGUAACAUGAGGAUCACCCAUGUAUAGGACCGGGCCAUAAUAAA [Same State - Tryptophan B (Freestyle 1)]	51.7	39.9	46.2	33.4	36.5	–	–	–	–	–
AAAAUAUAGACGGCCGCCACUAUAAACAUGAGGAACAUGAGGAUCACCCAUGUAUGAGGAUCACCUAGGACCGGGUCAUAUAAAA [AstrosExyTryB#1]	28.6	43	55.4	41.7	40.2	–	–	–	–	–
AAACAUUGCUGCGAUACCAGACAUGAGGAUCACCCAUGUACCAAGGUAAGAAAAUAACAUGUCCCUUGGCAGCGCAGCAAUGAAA [MAT - Exclusion Theophlline B - Mod of Eli - D2]	19.2	–	33.4	–	15.8	–	–	–	–	–
AAACGUUGCUCAGAUACCAGACAUGAGGAUCACCCAUGUACCGAGGUACCCGAAAGGAAUGUCCCUUGGCAGCUGAGCAACGAAA [MAT - Exclusion Theophlline B - Mod of Eli - D23]	14.6	–	19	–	10.2	–	–	–	–	–
AAAGUUGAUGAGUUGCGUUUGUGUUCCGAAGGAGCGAGAAUUAUCUCAGGUAGGUCGCGGAACAUGAGGAUCACCCAUGUAUAAA [XArg-A 19 NuV1&2 original #dotplot2>1]	35.3	36.3	46.2	41.6	34.3	–	–	–	–	–
AAAUAAUCUAGUCCACAAUGUGACUCAGAUACCAGUGCAAAGCUACACCCUUGGCAGCUGGUUACAUGAGGAUCACCCAUGUCGU [theeternabot_exclusion_MS2_Theo_A_50]	34.3	–	51.9	–	46.9	–	–	–	–	–
AAAUAUAACUCGGCCGCCACUGACAUGAGGAUCACCCAUGUUAUAUUUUAUACAUGAGGAUCACCCAGGACCGGGAGAAUAUAAA [Jonah 1]	61.7	940	484	696	1590	–	–	–	–	–
AACAUGAGGAUCACCCAUGUAAUAUGGGAUACCAGAGACGAAAGUCUCCCUUGGCAGCCCAAGCUGCUCCAUACGAAAGUAUGGU [Theophylline A 16]	50.5	–	43.7	–	64.7	–	–	–	–	–
UUAAUAAUUCAAGGAUAUGUUUUUUUUUUCGAGUGAUGUUCGGAAUUAAUAAAUUUAAAAGAUUAUACAGAAGGUGAUAAAUAGU [Cynwulf-mod#1]	–	–	–	–	–	103	91	88.3	103	88.6
UUACAGCCCAGUGAUGUUGGGUAGCGGCGGCGAGGACCGGUACGGCCGCCACUCGGCGCACAGGCGGAGUGAUGUUUUGCUUAAA [Same State Tryptophan A GF 11]	–	–	–	–	–	718	590	894	927	476
UUACAGGAACAAGGAUAUGGCGUUGUAGUGAUGUUACAGCGAAGAGCUCCACGCGAUCGGACAAAACCAGAAGGUGUAUGGAAUC [theeternabot_exclusion_KL_FMN_B_42]	–	–	–	–	–	155	108	127	116	112
UUACUACCCAGUGAUGUUGGGUAGCGGCGGCGAGGACCGGUACGGCCGCCACUCGGCGCACGGGAGUGAUGUUCCUAAGAAUAAA [Same State Tryptophan A GF 9]	–	–	–	–	–	295	306	335	350	140
UUACUGCCCAGUGAUGUUGGGUAUCGGCGGCGAGGACCGGUACGGCCGCCACUCGGCGCACAGGCGGAGUGAUGUUUCGCUUAAA [Same State Tryptophan A GF 12]	–	–	–	–	–	621	539	627	631	186
UUAGCUCUAUAGAGCAAGAGGUAUACUGAUACCAGAGGCUAUAGCCUCCCUUGGCAGCGGAACGAGUGAUGUUCGAAACCUCAUU [AK5 SS Theophylline A]	–	–	–	–	–	754	898	940	799	526
UUAUAUUUUAUAUUUAGUAGAGCUCUAGCUCGAGGACCGGUACGGCCGCCACUCGAGUGAUGUUCGAGUGGAAGAGCUCUACAUU [AK3.1 EXC Tryptophan A]	–	–	–	–	–	114	99.9	110	98.2	435
UUCCUAUUAUUAACACUAUAUACAACUGAAGGAGCGACAAUAAAGUCAGGUAGGUCGCAGAAUUAAUGAGUGAUGUUCAUUUUUA [JR_ExcArginiA_Sub013]	–	–	–	–	–	81.9	141	96.6	124	60.9
UUCCUCAUGGUAGUGAUGUUGCCGCCCGAUACCAGUCGACGUAUUGACCCUUGGCAGCGGAUCAAGUCCGAUUAAUUUUUUGGUC [theeternabot_sameState_KL_Theo_A_5]	–	–	–	–	–	216	190	217	320	196
UUCUACGAGUGAUGUUCGUAGUGUAAUAGCUAGGAUAUCGUUUUUUCGAGAAGGAGCUUCGAAGUGAUACGAAAGUAUCGCUUCG [FMN A 12]	–	–	–	–	–	227	369	349	–	264
UUGAGCCUGACGAAAGUCAGGCUCUGCGAGCGAGGACCGGUACGGCCGCCACUCGGUGCAGUGAUGUUGCAUGGCCGCAAGGCCG [#2 Exclusion - Tryptophan A Attempt #14 (HarryS)]	–	–	–	–	–	309	300	289	312	456

Sequence	apparent KD of MS2 coat protein (MS2 coat protein; input ligand: arginine 13.2 mM) [nM]	apparent KD of MS2 coat protein (MS2 coat protein; input ligand: none) [nM]	apparent KD of MS2 coat protein (MS2 coat protein; [2]) [nM]	apparent KD of MS2 coat protein (MS2 coat protein; [3]) [nM]	apparent KD of MS2 coat protein (MS2 coat protein; [4]) [nM]	apparent KD of K4 kissing-loop reporter ([1]; input ligand: FMN 200 uM) [nM]	apparent KD of K4 kissing-loop reporter ([1]; input ligand: arginine 13.2 mM) [nM]	apparent KD of K4 kissing-loop reporter ([1]; input ligand: none) [nM]	apparent KD of K4 kissing-loop reporter [1, 2] [nM]	apparent KD of K4 kissing-loop reporter [1, 4] [nM]
UUGCCCGAUGGAGAUACCAGCAGUUGUGCAGUGAUGUUGCACAAGUACUCGCUCCAUUGCUGCCCUUGGCAGCUCCCGGCGAAAA [Reoraren]	–	–	–	–	–	95.9	79.7	84.7	92.4	81.3
UUGCUUCUACUAGGAUAUCAUCAGUCAUGUUCAAUGACACUCGAGUGAUGUUCGAUAGAAGCGAGAUGAGAAGGAGUACAAGCAG [FMB B SS t3]	–	–	–	–	–	374	48.8	159	118	70.7
UUGGAGUGAUGUUCCAUAUCUUGAGCCGAAGGAGCGGCAUUAUUGCCAGGUAGGUCGCGGCAGAAGGUACCAGUGAUGUUGGAAA [Same State Arginine A GF 4]	–	–	–	–	–	136	138	151	126	125
UUGGCUGGACGGGAUACCAGCCAAAUCGUGUGCUUAGGAUGUCUAAGAGCCAGUGAUGUUGGCCCUUGGCAGCCCUCCUAGCUUG [Ordigear]	–	–	–	–	–	154	115	138	124	136
UUGGCUGGACGGGAUACCAGCCAAAUCGUGUGCUUGGGAUGUCUAAGAGCCAGUGAUGUUGGCCCUUGGCAGCCCUCCCAGCUUG [Inontixe]	–	–	–	–	–	124	88.6	97.1	134	98.4
UUGUUUGGUUGAGAGGUUGGGCGAGAUGAUACCAGUAUAGUAUAGUACCCUUGGCAGCAUAGGAGAGAUAUAGUGAUGUUGUAUG [SSTheophA.V]	–	–	–	–	–	424	288	493	372	373
UUGUUUUACUGAAGGAGCGGCAAUUGAUACGUAGAUAUAGUGAUGUUAUAUAAGAUAGAGAGCCAGGUAGGUCGCAGAUGUGUUU [ExArgB.T]	–	–	–	–	–	196	205	180	204	149
UUUAAACAUAGUGAUGUUAUGUAACAAUGACGAGGACCGGUACGGCCGCCACUCGAGAGAGAUAAUGAUAAAAUAAAUAAUUUUC [#09 K4 Tryptophan A Same State]	–	–	–	–	–	109	111	118	115	92.4
UUUAUGAGGUCGGCCGCCACUGGAUUUAUGUUUGUUUCGUCUGGAUCAAAGUGAUGUUUUGAGUCCAGGACCGGGACAUUUGUUA [whbob_Ex_Tryp_B_w40]	–	–	–	–	–	85.3	76.3	80.5	76.8	94
UUUAUUAAGACGGCCGCCACUGAUUCAUAGUGAUGUUAUGAUAUAAUCUUAGUGAUAUUUAUAAACAGGACCGGGUCAAUUAUUA [JR_SSTryptoB_Sub026]	–	–	–	–	–	221	173	192	166	162
UUUGGAUUGCGCUAAGAGUGCAAGCGCCAACGAGGACCGGUACGGCCGCCACUCGCGGAGGAGUCCAGUGAUGUUGGACGGCCCG [Orbile]	–	–	–	–	–	326	222	601	178	183
UUUUAAAUAUCUGAUACCAGAGAAAAUAUAUGUAGUGAUGUUAUAUACAAAAUAAAUAAGCUCCCUUGGCAGCAGUAUUAAUUUU [AstrosExyTheB#1]	–	–	–	–	–	655	622	808	688	610
UUUUAAAUGUCUGAUACCAGAGAAAAUAUAUGUAGUGAUGUUACAUACAAAUUUAAUAAGCUCCCUUGGCAGCAGUAUGAAUUUU [AstrosExc-TheB#15]	–	–	–	–	–	44.6	66.7	55.9	67	49.5
UUUUAAUGCAGUGAUGUUGCUAAUAAAACAGAGGAUAUGCAUGGAAGCAGAAGGCUGAAAUAUUAUACUUUAAUAAAUUAUAUUU [JR_SSFMNA_Sub010]	–	–	–	–	–	71.2	116	78.8	119	66.6
UUUUAAUGCAGUGAUGUUGCUAAUAAAACAGAGGAUAUGCAUGGAAGCAGAAGGCUGAUAUAUUAUACUUUAAUAUAUUAUAUUU [JR_SSFMNA_Sub011]	–	–	–	–	–	77.8	147	121	188	86.6
UUUUAUUAGUAGUGAUGUUACUAAACUGAAGGAGCGAGAUUUAACUCAGGUAGGUCGCAGAAAAUCAAUUAAUUUAUAAAUUAAA [JR_SSArginiA_Sub011]	–	–	–	–	–	97.7	87.8	99.8	87.2	94.6
UUUUUAUGCAGUGAUGUUGCUAAUAUAACAGAGGAUAUGCAUUAAAGCAGAAGGCUGAAAUACUAUACUUUAAUAAAUUAAAUUU [JR_SSFMNA_Sub013]	–	–	–	–	–	94.2	136	107	144	82.7
UUUUUGGAGAAUUAUAGUGAUGUUAUGAAGGAGGAUAUCUGGAGAUGGAGAAGGCCUAGUGGCUCAGCCCUGGAGGGUGGGUGGG [ExFMNA.aB]	–	–	–	–	–	822	562	705	556	572
UUUUUGGUUUAGAGUGAUGUUCCUUGUAAUCGAGGACCGGUACGGCCGCCACUCGAUUAGAAAAGAAAAGAAAAGAGUGAUGUUU [BDazzled - #2 SS Tryptophan A]	–	–	–	–	–	347	229	299	248	243
